According to patent US20060263849A1, “Glucagon-like peptide-1 analogs” (priority 2000, published 2006):
Values joined by “and” are separate entries in the source; they are usually repeats but may differ in a detail not shown here. Equal entries are not always repeated. Where no end group is shown, it is not given here.

What was measured:
[1] = Zinc precipitation of GLP-1 compounds (A280 of supernatant); format: physicochemical; settings: HEPES pH 7.4, 22° C., 18 hours
Experimental: Individual GLP-1 compounds were prepared as described in Examples 1 or 2. 3 mg of an individual lyophilized GLP molecule was dissolved in 3 ml 0.1 M HEPES buffer pH 10.5. The pH of the resulting solution was then adjusted to between 10.0 and 10.5 with 0.2 N NaOH. The solution was stirred at ambient temperature for 30 minutes and the solution was then adjusted to a pH of 7.4 with 0.2 N HCl. The solution was filtered through an appropriate syringe filter, for example a Millex GV syringe filter (Millipore Corporation, Bedford, Mass.), and the concentration of the GLP-1 compound was estimated by measuring the absorption at 280 nm in a spectrophotometer, for example a Beckman DU640. The protein concentration was then adjusted to 200 μM in HEPES pH 7.4.
The filtered GLP-1 solutions (100 μl) were diluted with 100 μl of 0.1 M HEPES pH 7.4 containing various levels of zinc chloride in an ELISA plate, (e.g. Falcon Microtest™ 96) resulting in 200 μl of solution containing various levels of zinc chloride and 100 μM GLP-1 compounds. These solutions were incubated at ambient temperature (22° C.) for 18 hours and then centrifuged, for example, in a Jouan CR412 centrifuge with microplate adapters. 150 μl of the supernatants after centrifugation were then transferred to a UV-readable ELISA microtiter plate (e.g. Costar UV plate) and the OD at 280 was determined in a microplate reader (e.g. Molecular Devices SPECTRAmax PLUS, SOFTmax PRO). A280 values are the result of two independent determinations.

[2] = GLP Aggregation Assay (time to onset of aggregation, turbidity at 350 nm); format: physicochemical; settings: for Aggregation Time: 0.3 mg/mL in 10 mM citrate, 10 mM phosphate, 150 mM NaCl, pH 7.4 to 7.5, 37° C., stirred, turbidity at 350 nm
Experimental: GLP peptides of this invention were analyzed with respect to their potential to aggregate in solution. In general, peptides in solution were stirred at elevated temperature in a suitable buffer while recording turbidity at 350 nm as a function of time. Time to the onset of aggregation was measured to quantify the potential of a given GLP molecule to aggregate under these stressed conditions.
A GLP-1 compound was first dissolved under alkaline conditions (pH 10.5) for 30 minutes to dissolve any pre-aggregated material. The solution was then adjusted to pH 7.4 and filtered. Specifically, 4 mg of a lyophilized GLP-1 compound was dissolved in 3 ml of 10 mM phosphate/10 mM citrate. The pH was adjusted to 10.0-10.5 and held for 30 minutes. The solution was adjusted with HCl to pH 7.4 and filtered through a suitable filter, for example a Millex GV syringe filter (Millipore Corporation, Bedford, Mass.). This solution was then diluted to a final sample containing 0.3 mg/mL protein in 10 mM citrate, 10 mM phosphate, 150 mM NaCl, and adjusted to pH 7.4 to 7.5. […] Every five minutes the turbidity of the solution was measured at 350 nm on an AVIV Model 14DS UV-VIS spectrophotometer (Lakewood, N.J.). For 30 seconds prior to and during the measurement the solution was stirred using a magnetic stir bar from Starna Cells, Inc. (Atascadero, Calif.). An increase in OD at 350 nm indicates aggregation of the GLP-peptide. The time to aggregation was approximated by the intersection of linear fits to the pre-growth and growth phase according to method of Drake (Arvinte T, Cudd A, and Drake A F. (1993) J. Bio. Chem. 268, 6415-6422).
The cuvette was cleaned between experiments with a caustic soap solution (e.g., Contrad-70).
The results for a number of GLP-1 compounds of the present invention are reported in Table 1 as the time in hours required for the compound to aggregate.

[3] = tested on: GLP-1 receptor; experiment: GLP-1 receptor activation, in vitro assays; format: cell-based; settings: for GLP-1 Receptor Activation: activity relative to the activity of GLP-1(7-37)OH
From the text: “Insulinotropic activity” refers to stimulating insulin secretion in response to elevated glucose levels, thereby causing glucose uptake by cells and decreased serum glucose levels. Insulinotropic activity can be assessed by methods known in the art, including using in vivo experiments and in vitro assays that measure GLP-1 receptor binding activity or receptor activation, e.g., assays employing pancreatic islet cells or insulinoma cells, as described in EP 619,322 to Gelfand, et al., and U.S. Pat. No. 5,120,712, respectively. The entire teachings of these references are incorporated herein by reference.
The ability of the GLP-1 compounds of the present invention to activate the GLP-1 receptor was assessed using in vitro assays such as those described in EP 619,322 to Gelfand, et al., and U.S. Pat. No. 5,120,712, respectively. The entire teachings of these references are incorporated herein by reference.

[4] = Zn/GLP-1 molar ratio 0, 100 μM GLP-1 compound
[5] = Zn/GLP-1 molar ratio 0.3, 100 μM GLP-1 compound
[6] = Zn/GLP-1 molar ratio 0.5, 100 μM GLP-1 compound
[7] = Zn/GLP-1 molar ratio 0.7, 100 μM GLP-1 compound
[8] = Zn/GLP-1 molar ratio 1, 100 μM GLP-1 compound
[9] = Zn/GLP-1 molar ratio 2, 100 μM GLP-1 compound
[10] = Zn/GLP-1 molar ratio 3, 100 μM GLP-1 compound
[11] = Zn/GLP-1 molar ratio 5, 100 μM GLP-1 compound

Substance	A280 [1, 4]	A280 [1, 5]	A280 [1, 6]	A280 [1, 7]	A280 [1, 8]	A280 [1, 9]	A280 [1, 10]	A280 [1, 11]	Aggregation Time [2]	aggregation time compared with GLP-1(7-37)OH ([2]; relative to GLP-1(7-37)OH)	GLP-1 Receptor Activation [3]	GLP-1 receptor activation greater than GLP-1(7-37)OH ([3]; relative to GLP-1(7-37)OH)
Val^8-Glu^22-GLP-1(7-37)OH (HVEGTFTSDVSSYLEEQAAKEFIAWLVKGRG)	0.295	0.291	0.292	0.293	0.26	0.078	0.052	0.035	72 h	over twenty fold greater	1.29	about 25%
Val^8-Ala^22-GLP-1(7-37)OH (HVEGTFTSDVSSYLEAQAAKEFIAWLVKGRG)	0.289	0.202	0.107	0.104	0.110	0.110	0.104	0.119	19 h	–	0.56	–
Val^8-Lys^22-GLP-1(7-37)OH (HVEGTFTSDVSSYLEKQAAKEFIAWLVKGRG)	0.299	0.0825	0.0905	0.1195	0.1225	0.1675	0.1475	0.142	100 h and 54 h	–	0.58	–
Gln^22-GLP-1(7-37)OH (HAEGTFTSDVSSYLEQQAAKEFIAWLVKGRG)	0.290	0.390	0.123	0.076	0.074	0.095	0.095	0.097	7 h	–	0.42	–
Val^8-Lys^24-GLP-1(7-37)OH (HVEGTFTSDVSSYLEGQKAKEFIAWLVKGRG)	–	–	–	–	–	–	–	–	22 h	–	0.02	–
Gly^8-Glu^30-GLP-1(7-37)OH (HGEGTFTSDVSSYLEGQAAKEFIEWLVKGRG)	–	–	–	–	–	–	–	–	>40 h	–	0.29	–
Val^8-Glu^22-Lys^23-GLP-1(7-37)OH (HVEGTFTSDVSSYLEEKAAKEFIAWLVKGRG)	–	–	–	–	–	–	–	–	>65 h	–	1.43	–
Val^8-Lys^33-Asn^34-GLP-1(7-37)OH	–	–	–	–	–	–	–	–	>48 h	–	0.09	–
Val^8-Glu^22-GLP-1(7-36)NH2 (HVEGTFTSDVSSYLEEQAAKEFIAWLVKGR-NH2)	–	–	–	–	–	–	–	–	>65 h	–	1.0	–
Val^8-Tyr^12-GLP-1(7-37)OH (HVEGTYTSDVSSYLEGQAAKEFIAWLVKGRG)	–	–	–	–	–	–	–	–	6 h	–	0.81	–
Val^8-Ser^22-GLP-1(7-37)OH (HVEGTFTSDVSSYLESQAAKEFIAWLVKGRG)	0.2855	0.2805	0.2665	0.1825	0.149	0.0935	0.101	0.0615	22 h	–	0.50	–
Val^8-Lys^22-Glu^23-GLP-1(7-37)OH (HVEGTFTSDVSSYLEKEAAKEFIAWLVKGRH)	–	–	–	–	–	–	–	–	>30 h	–	0.35	–
Val^8-Lys^20-GLP-1(7-37)OH (HVEGTFTSDVSSYKEGQAAKEFIAWLVKGRG)	–	–	–	–	–	–	–	–	5 h	–	0.33	–
Val^8-Ser^30-GLP-1(7-37)OH (HVEGTFTSDVSSYLEGQAAKEFISWLVKGRG)	–	–	–	–	–	–	–	–	8 h	–	0.19	–
Val^8-Glu^30-GLP-1(7-37)OH (HVEGTFTSDVSSYLEGQAAKEFIEWLVKGRG)	–	–	–	–	–	–	–	–	30 h	–	0.29	–
Val^8-Pro^22-GLP-1(7-37)OH (HVEGTFTSDVSSYLEPQAAKEFIAWLVKGRG)	0.2595	0.2455	0.2325	0.219	0.1905	0.1695	0.1615	0.171	>75 h	–	0.01	–
Val^8-Pro^35-GLP-1(7-37)OH (HVEGTFTSDVSSYLEGQAAKEFIAWLVKPRG)	–	–	–	–	–	–	–	–	14 h	–	0.094	–
Val^8-Asp^22-GLP-1(7-37)OH (HVEGTFTSDVSSYLEDQAAKEFIAWLVKGRG)	0.288	0.2785	0.2845	0.287	0.291	0.184	0.1485	0.1675	>90 h	–	0.40	–
Val^8-Glu^35-GLP-1(7-37)OH (HVEGTFTSDVSSYLEGQAAKEFIAWLVKERG)	–	–	–	–	–	–	–	–	63 h	–	0.15	–
Val^8-Glu^16-GLP-1(7-37)OH (HVEGTFTSDESSYLEGQAAKEFIAWLVKGRG)	–	–	–	–	–	–	–	–	12 h	–	0.047	–
Val^8-Glu^22-Gln^23-GLP-1(7-37)OH (HVEGTFTSDVSSYLEEQAAKEFIAWLVKGRG)	–	–	–	–	–	–	–	–	>20 h	–	0.47	–
